In PMC7110135, “Molecular flexibility of DNA as a key determinant of RAD51 recruitment”:

Assays:
F86E RAD51 (human) = F86E RAD51 (human) (UniProt Q06609); experiment: SPR; Biotinylated ssDNA dT-50, dN-50, dA-50 and dsDNA dN-50p held on streptavidin-coated CM5 chips; F86E RAD51 injected at 30 uM; 37 C; same SPR running buffer with ATP and CaCl2. The protomer-protomer KD in solution is a single fit parameter of a simplified ODE polymerisation model, fitted to all four curves by ABC-SMC (n = 3).
[1] = target: T1, human wild-type (WT) RAD51 (human), Q06609; experiment: SPR; Biotinylated ssDNA (dN-X) and dsDNA (dN-Xp) held on streptavidin-coated CM5 chips; WT RAD51 injected at 150 nM or 3 uM; 37 C; 150 mM KCl, 20 mM Hepes pH 7.5, 2 mM DTT, 5 mg/ml BSA, 2.5 mM ATP, 10 mM CaCl2, 10% glycerol. The protomer-protomer KD in solution is a single fit parameter of an ODE polymerisation model, fitted to all curves by ABC-SMC (n = 3).; settings: remark: other sources report otherwise
T1 chain: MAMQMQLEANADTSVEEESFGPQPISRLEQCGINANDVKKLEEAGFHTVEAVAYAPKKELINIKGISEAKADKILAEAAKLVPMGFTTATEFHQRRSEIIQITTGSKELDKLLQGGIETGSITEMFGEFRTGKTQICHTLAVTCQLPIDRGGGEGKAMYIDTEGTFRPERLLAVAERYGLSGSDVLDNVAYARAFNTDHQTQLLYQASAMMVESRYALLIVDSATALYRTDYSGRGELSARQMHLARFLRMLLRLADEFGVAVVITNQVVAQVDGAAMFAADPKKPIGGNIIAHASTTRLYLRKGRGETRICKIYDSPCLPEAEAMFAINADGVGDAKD

RAD51 WT [2] = target: T2, RAD51 WT (Homo sapiens, UniProt Q06609 1-339); experiment: SPR; ATP, Ca2+; SPR (Biacore T200, streptavidin CM5): 150 mM KCl, 20 mM Hepes pH 7.5, 2 mM DTT, 5 mg/ml BSA, 2.5 mM ATP, 10 mM CaCl2, 10% glycerol, 37 C; settings: protein: recombinant, tags: untagged
RAD51 WT [3] = target: T2, RAD51 WT; experiment: SPR; 3 uM RAD51, ATP, Ca2+; slightly faster association, slow dissociation; SPR (Biacore T200, streptavidin CM5): 150 mM KCl, 20 mM Hepes pH 7.5, 2 mM DTT, 5 mg/ml BSA, 2.5 mM ATP, 10 mM CaCl2, 10% glycerol, 37 C; settings: protein: recombinant; tags: untagged; chain copies: 10; label: 3' Biotin-TEG
RAD51 WT [4] = target: T2, RAD51 WT; experiment: SPR; 3 uM RAD51, ATP, Ca2+; faster association, slower dissociation than dN-8p; SPR (Biacore T200, streptavidin CM5): 150 mM KCl, 20 mM Hepes pH 7.5, 2 mM DTT, 5 mg/ml BSA, 2.5 mM ATP, 10 mM CaCl2, 10% glycerol, 37 C; settings: protein: recombinant; tags: untagged; chain copies: 16; label: 3' Biotin-TEG on strand 2; hairpin, two strands joined by (HEG)2, blunt
RAD51 WT [5] = target: T2, RAD51 WT; experiment: SPR; ATP, Ca2+; faster association than dN-50; SPR (Biacore T200, streptavidin CM5): 150 mM KCl, 20 mM Hepes pH 7.5, 2 mM DTT, 5 mg/ml BSA, 2.5 mM ATP, 10 mM CaCl2, 10% glycerol, 37 C; settings: protein: recombinant; tags: untagged; chain copies: 10; label: 5' Biotin (C6)
RAD51 WT [6] = target: T2, RAD51 WT; experiment: SPR; 150 nM RAD51, 2.5 mM ATP, 10 mM Ca2+; slower association than dN-50, similar lifetime; SPR (Biacore T200, streptavidin CM5): 150 mM KCl, 20 mM Hepes pH 7.5, 2 mM DTT, 5 mg/ml BSA, 2.5 mM ATP, 10 mM CaCl2, 10% glycerol, 37 C; settings: protein: recombinant; tags: untagged; chain copies: 16; label: 5' Biotin (C6) on strand 1; blunt
RAD51 WT [7] = target: T2, RAD51 WT; experiment: SPR; 150 nM RAD51, 2.5 mM ATP, 10 mM Ca2+; faster association than dN-50p; SPR (Biacore T200, streptavidin CM5): 150 mM KCl, 20 mM Hepes pH 7.5, 2 mM DTT, 5 mg/ml BSA, 2.5 mM ATP, 10 mM CaCl2, 10% glycerol, 37 C; settings: protein: recombinant; tags: untagged; chain copies: 10; label: 5' Biotin (C6)
[8] = chain copies: 10, label: 3' Biotin-TEG

With “F86E RAD51 (from UniProt Q06609 1-339) (natural protein)” the Kd (F86E RAD51 (human)) was 10.2 µM.

B1: human wild-type (WT) RAD51, Q06609 1-339 (natural protein)
chain: T1 chain
With B1 the Kd [1] was 0.00114 µM.

B2: ssDNA dN-8 (ssDNA)
DNA: CTGACTGC
B2: no binding (RAD51 WT [2]; [8]).

B3: ssDNA dN-17 (ssDNA)
DNA: CGTCGATGAGCAGTGTC
B3: binds (RAD51 WT [3]).

B4: ssDNA dN-5 (ssDNA)
DNA: CGGAC
B4: no binding (RAD51 WT [2]; [8]).

B5: dsDNA dN-11p (dsDNA)
DNA 1: CGTCGATAGGC
DNA 2: GCCTATCGACG
modifications: two hexaethylene glycol linkers join 3' end of strand 1 to 5' end of strand 2
B5: binds (RAD51 WT [4]).

B6: ssDNA dT-50 (ssDNA)
DNA: TTTTTTTTTTTTTTTTTTTTTTTTTTTTTTTTTTTTTTTTTTTTTTTTTT
B6: binds (RAD51 WT [5]).

B7: dsDNA dN-5p (dsDNA)
DNA 1: CGGAC
DNA 2: GTCCG
modifications: two hexaethylene glycol linkers join 3' end of strand 1 to 5' end of strand 2
B7: no binding (RAD51 WT [2]; chain copies: 16, label: 3' Biotin-TEG on strand 2, hairpin, two strands joined by (HEG)2, blunt).

B8: ssDNA dN-11 (ssDNA)
DNA: CGTCGATAGGC
B8: no binding (RAD51 WT [2]; [8]).

B9: dsDNA dN-50p (dsDNA)
DNA 1: TCGAGAGGGTAAACCACAATTATCGCCTACCCAAAACTATTTTATATCAA
DNA 2: TTGATATAAAATAGTTTTGGGTAGGCGATAATTGTGGTTTACCCTCTCGA
B9: binds (RAD51 WT [6]).

B10: ssDNA dN-50 (ssDNA)
DNA: TTGAGAGAGCAGACCACAATTATCACCTACACGACATCATTTTATATCAA
B10: binds (RAD51 WT [7]).
